The source of these data is patent publication US20190041390A1 (UNIVERSITY OF TENNESSEE RESEARCH FOUNDATION, published 2019).

The target in the test is T1, streptavidin/gold (10 nm-diameter; Electron Microscopy Sciences) (UniProt P22629 37-163, limits assumed, conjugated to 10 nm gold particles).
T1 construct: Detection reagent; also called avidin-conjugated gold particles; gold particles
In words: immunogold electron microscopy control, fibrils with recruited AL1κ and no mAb added. The text has this:
Immunogold electron microscopy was used to investigate the binding sites of AL1κ LC on rVλ6Wil fibrils (FIG. 6A and FIG. 6B). The distribution of AL1κ LC (evidenced by the presence of anti-κ LC mAb-bound 10 nm-diameter gold particles; arrows) was generally at the ends of the rVλ6Wil fibrils and less commonly seen along the length of the fibril (arrowheads; FIG. 6A). A sample of fibrils with AL1κ LC recruited but with no mAb added served as a non-specific binding control. No gold particles were observed associated with the majority of fibrils in this preparation (FIG. 6B).
Twenty-five μg of rVλ6Wil fibrils were mixed with 1 μg […] in 200 μL of tris-buffered saline (TBS) with 0.05% tween-20 (TBST) in a 1.5 mL-volume microcentrifuge tube. The sample was rotated at RT for 24 h before being centrifuged at 20,000×g for 8 min, and the supernatant was discarded. The pellet was washed in 400 μL TBST twice by centrifugation, before the sample was split into two 200 μL-volume samples in TBST. To one sample, 10 μg each of two biotinylated anti-κ mAbs (αLKC8 and 14-6E4) were added; no antibodies were added to the other sample. Both samples were rotated 2 h at RT prior to two washes by centrifugation, as before. The pellets were resuspended in […] TBST with addition of a 1:4 dilution of streptavidin/gold stock solution ([…]; Electron Microscopy Sciences, Hatfield, Pa.). […]

T1 sequence (P22629 37-163 limits assumed): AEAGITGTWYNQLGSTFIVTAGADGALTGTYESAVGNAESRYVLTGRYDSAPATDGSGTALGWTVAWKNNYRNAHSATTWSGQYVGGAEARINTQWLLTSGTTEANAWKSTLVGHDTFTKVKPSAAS

B1: synthetic rVλ6Wil fibrils (other)
VL: NFLLTQPHSVSESPGKTVTISCTRSSGSIANNYVHWYQQRPGSSPTTVIFEDDHRPSGVPDRFSGSVDTSSNSASLTISGLKTEDEADYYCQSYDHNNQVFGGGTKLTVLG
notes: Amyloid fibril polymer of rVλ6Wil monomers; Used in suspension (pulldown), coupled to a CM-5 chip (SPR) or dried onto microplate wells; also called rVλ6Wil synthetic amyloid fibrils; rVλ6Wil fibril seed
For the molecule B1, the binding result is given as “no binding”.
